The data set relates to O=[N+]([O-])c1ccc(O[C@@H]2O[C@H](CO)[C@@H](O)[C@H](O)[C@H]2O)cc1. The data set is described as follows: purified protein. The settings on record: 37 °C, 20 mM phosphate buffer pH 7.0, 1-20 mM pNPG.

Sequence of RpBgl8 (Reticulitermes perilucifugus) (chain, as listed by the source): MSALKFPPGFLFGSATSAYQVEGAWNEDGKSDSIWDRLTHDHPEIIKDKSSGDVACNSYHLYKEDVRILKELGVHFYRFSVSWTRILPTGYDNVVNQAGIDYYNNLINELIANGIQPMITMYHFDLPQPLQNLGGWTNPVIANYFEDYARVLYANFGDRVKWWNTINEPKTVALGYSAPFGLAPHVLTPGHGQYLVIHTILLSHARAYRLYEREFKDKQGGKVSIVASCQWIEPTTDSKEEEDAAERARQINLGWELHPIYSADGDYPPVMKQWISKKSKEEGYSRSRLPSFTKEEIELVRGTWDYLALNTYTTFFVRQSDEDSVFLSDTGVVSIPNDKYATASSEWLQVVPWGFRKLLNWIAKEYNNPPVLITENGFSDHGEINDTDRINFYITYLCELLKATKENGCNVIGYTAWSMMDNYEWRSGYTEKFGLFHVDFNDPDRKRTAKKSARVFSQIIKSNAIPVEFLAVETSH

Regarding RpBgl8 (Reticulitermes perilucifugus), the Km (in general, the substrate concentration at which the rate is half of its maximum) was determined as 5.4 mM and the kcat (as a rule, the maximal rate divided by the concentration of active sites) came out at 0.17 s⁻¹.

These data come from PMC11989107, “Biochemical and Structural Characterization of a Highly Glucose-Tolerant β-Glucosidase from the Termite Reticulitermes perilucifugus” (International Journal of Molecular Sciences, 2025).
